Experimental data taken from PMC4310633 (Biochemistry, 2014).

B1: ligand binding domain (LBD) of the GluN1 subunit of the NMDA receptor (domain or fragment)
chain: not shown
B2: ligand binding domain (LBD) of the GluN2A subunit of the NMDA receptor (domain or fragment)
chain: not shown

Biological target: the molecule itself
Experiment: AUC

Row | Protein | stoichiometry N
1 | B1 | 2
2 | B2 | 2
